A short description of the data set: yeast display, Sf9 membrane polyspecificity reagent, FACS + sequencing; frameworks hold sequencing errors. The gist of the method:
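A synthetic nanobody library was expressed on Saccharomyces cerevisiae BJ5465 by galactose induction for 36–48 hours. The library was stained for 1 hour at 4 °C with 10% biotinylated, detergent-solubilized Sf9 membrane reagent and enriched with streptavidin microbeads before FACS. Low and high (top ~1%) gates were set on anti-HA fluorescence for expression and streptavidin fluorescence for reagent binding, and each polyreactivity label reflects the gate of origin.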
As for “QVQHVESGGGLVQAGGSLRLSCAASGTTFVLYAMGWYIQAPGKERELVAAITWSGGITYYADSVKGRFTISRDNAKNTVYLQMNSLKPEDTAVYYCNAEQKQYEKSYDYWGQGSQVTVSS”, the “polyreactivity (PSR sort gate)” value was “low polyreactivity”.
Next, “QVQHVESGGGLVQAGGSLRLSCAASGYTFRSNTMGWYRQAPGKERELVAAISGRGSSTYYADSVKGRFTISRDNAKNTVYLQMNSLKPEDTAVYYCAAQSKYYQYYSWGQGTQVTVSS”: “high polyreactivity”; “QVQHVESGGGLVQAGGSLRLSCAASGYTFYFYAMGWYRQAPGKERELVAAITGGGTTSYADSVKGRFTISRDNAKNTVYLQMNSLKPEDTAVYYCNVLFADKSDYWGPGTQVTVSS”: “low polyreactivity”.
The entry for “QVQHVESGGGLVQAGGSLRLSCAASVRTLYYYAMGWYRQAPGKERELVAAISGGGRTYYADSVKGRFTISRDNAKNTVYLQMNSLKPEDTAVYYCASRYRKSGLDNYWGQGTQVTVSS” is “high polyreactivity”; for “QVQHVESGGGLVQAGGSLRLSCAATGRIFKYYARGWYTQAPGKERELVAAISSTGGRTYYADSVKGRFTNSRDNAKNTVYLQMNSLKPEDTAVFSCAADYAWGDPGRARFGYWGQGTQVTVSS” it is “high polyreactivity”; for “QVQHVESGGGLVQAGGSLRLSCAAYGSIFVYYAMGWYRKAPGKERDLFAAISSSGDTTYYADSVKGRYTISRDNAKNTVYLQMNSLKPEDTAVYYCAARVRVYRHASNYYWGQCTQVTVSS” it is “high polyreactivity”.
The entry for “QVQHVESGGGLVQAGGSLRLSCASSGRTFYEYAMGWYRQAPGKERELVAGITSGGSTNYADSVKGRFTISRDNAKNTVYLQMNSLKPEDTAVYYCAASYWGYEYDYWGQGTQVTVSS” is “low polyreactivity”; for “QVQHVESGGGLVQAGGSLRLSCDASGRIFAKYAMGWYRQAHGKERELVAGISWGGGSTYYADSVKGRFTISRDNAKNTVYLQMNSLKPEDTAVYYCAARIPKQRDVRGSGMNYWGQGTQVTVSS” it is “high polyreactivity”; for “QVQHVESGGGLVQAGGSLRLSCGASGITLYGYAMGWYRQAPGKEREFVAAISRSGDRTYYADSVKGRFTISRDNAKNTVYLQMNSLKPEDTAVYYCNAWRYDYWGQGTQVTVSS” it is “high polyreactivity”.
For the sequence “QVQHVESGGGLVQAGGSLRLSGAASGSTFPTIAMGWNRQAPGKEREWVADITIRAGGTSYADSVKGRFTISRDNAKNSVYLQMNSLKPQDTAVFYCARSKSSELKRLLYDSWGEGTQVTVSS”, the “polyreactivity (PSR sort gate)” value is “low polyreactivity”.
The entry for “QVQHVESGGGLVQAGGSLRLSSAASGSIFTFYAMGWSRQAPGKEMELVADITGRGSRTYYADSVTGRFTISRDNAKNTVYLKMNSLKPEDTAVYYCAAGHDRYYQSEYGYWGQGTQVTVSS” is “high polyreactivity”; for “QVQHVESGGGLVQAGGSLRLTCAASGRIYASNSKGWYRQETGKERELFATSRVGGGSTYYADSVKGRFTISRDNAKNTVYLQRNSLKQEDTAVYYWAASFRDDFPQRLDFWGQGTQVTVSS” it is “low polyreactivity”; for “QVQHVESGGGLVQAGGSLRLTCAASGSTSPTNVMGWYRQAPGKERELVAAISYSGGRTYYADSVKGRFTISRDNAKKTVYLQMNSLKPEDTAVYYCAARSLKRKYESWGQGTQVTVSS” it is “high polyreactivity”.
Next, “QVQHVESGGGLVQAGGSLSLSCAASGFIFSAYAMGWYRRAAGKERKLVDAITRSGGITDYADSVKGRFTISRDIAKNTVYLQMNSLKPEDTADYYCAALRVQQVKSYYYWGQGTQVTVSW”: “high polyreactivity”; “QVQHVESGGGLVQAGGSRRLTCAASGYTFYKYAMGWYRQAPGKERELVAAISSSGGSTYYADSVKGRFTISRDNAKNTGYLHMNSLKPVDTAVYYCAAFVYSNDYDYWGQGTQVTVSS”: “high polyreactivity”.
The entry for “QVQHVESGGGLVQAGRSLRLICAASGRNSKGYAMAWDRQAPGKERELVAAYADSVKGRFTIARDNAKNTVYLQMNSLKPEDTAVYYCNADYDQVSRVGYVYWAYYYWGQGTQVTVSS” is “low polyreactivity”; for “QVQHVESGGGLVQAGRSLRLSCAASGFTIVQYAMGWYRQAPGKERELVARISPIGGSTYYADSVKGRFTISRDNAKNTVYLQMNSLKPEDTAVYYCNALRGPVKYYYWGQGTQVTVSS” it is “low polyreactivity”.
As for “QVQHVESGGGLVQAGRSLRLSCAASGLIYPYVMGWYRQAPGKERELVAAISRSGGRTYYADSVKGRFTISRDNAKNTVYLQMNSLKPEDTAVYYCAAKVDVTGYFDYWGQGTQVTVSS”, the “polyreactivity (PSR sort gate)” value is “high polyreactivity”.
Next, “QVQHVESGGGLVQAGVSLRLSCAASGFTFGSNAMGRYRPAPGKERELVAAINYSGVRTYYADSVKGRFTISRDNAKNTVYLQMNSLKPEDTAVYYCAKQRSKPNSFDYWGQGTQVTVSS”: “high polyreactivity”; “QVQHVESGGGLVQARGSLRLSCAASGSTIKHYGMGWYRHAPGKERELVAAITSGGRTYYADSVKGRFTISRDNAKNTVYLQMNSLKQDDSAGYYCAALRVQQVKSYYYWGQGTQVTVSS”: “high polyreactivity”.
On to “QVQHVESGGGLVQEGGSLRVSCAASGSIFGTNDMGWYRQAPGKERELVAAISSSGASTYYADSVKGRFTISRDNAKNTVYLQMNSLKPEDTAVYYCARGYTYQYSSFYYWGQGTQVTVSS”, for which the “polyreactivity (PSR sort gate)” value is given as “low polyreactivity”.
The entry for “QVQHVESGRGLVQAGGSLRLSCAASGFIFRLYAMGWYRQAPGKERELVAAISRGGSTTYADSVKGRFTISRDNAKNTVYLQMYSLKPEDTAVYYCATEGDLVAYLYDYWGQGTQVTVSS” is “low polyreactivity”; for “QVQHVESGVGLVQAGGSLRLSSAASGRTFSDNAMGWYRQAPGNERELVAAISRSGGRTYYADSVKGRFTISRDNAKNTVYLQMNSLKPEDTAVYYCAAAPSVSGTRLYEYWGQGTQVTVSS” it is “high polyreactivity”; for “QVQHVESRGGLVQAGGSLRLICAASGFILYYYAMGWYRQAPGKVREMVASISRRGGSTYYADSVKGRFTISRDNAKNTVYLQMNSLKPEDTAVYYCAATETTSRRFGYDYWGQGTQVTVSS” it is “high polyreactivity”.
Next, “QVQHVESRGGLVQAGGSLRLICAASGFTFSSYAMGWYRQAPGKERELVASISWRGGIPYYADSVKGRFTISRDNAKNTVDLQMISLKPEDTAVYYCAAVPSYHSTSPFYYWGQGTQVTVSS”: “high polyreactivity”; “QVQHVESRGGLVQAGGSLRLSCAASGITLPKYAMGCYRQAPGKERELAAAISRRGGITYYADSVKGRFTISRDNAKNSVYLQMNSQKPEDTAVYYCAADRTDTRGFDYWGQGTQVTVSS”: “high polyreactivity”.
Next, “QVQHVESRGGLVQARGSLRLSCAASGRIFSPYAMGWYRQAPGKERELVAAITWSGGSTYYADSVKGRFTISRDNAMNTVYLQMNSLKQEDTAVYYCAADFYRRYYAWEYYYWGQGTQVTVSS”: “high polyreactivity”.
Regarding “QVQHVESVGCLVQAAGSLPLSCAASGSTFSSYAMGWYRQAPGKERELVAAISTSGGSTYYADSVKGRFTISRDNAKNTVYLQMNSLKQEDTAVYYCYAGPSYYPFFWPDFEYWVQGTQVTVSS”, the “polyreactivity (PSR sort gate)” value is reported as “high polyreactivity”.
For “QVQHVESVGGLVQAGGSLPLSGASSGFIFRKNAMGWYRQATGKEREFVAAISRRGGCTYYADSVKGRFTISRDNAKNTVYLQMNSLKPEDTAVYYCNAELYDVGSHEYDYWVQGTQVTVSS”, the “polyreactivity (PSR sort gate)” value was “high polyreactivity”.
Turning to “QVQHVESVGGLVQAGGSLRLSCAASGFTFYGYAMGWYRHATGKERELVPAISQSGGSTTYADSVKGRFTISRDKAKNTVYVQMNSLKPEDTAVYYCAARYPYYWWRHVYGDVEYDFWGQGTQGTVSS”, the “polyreactivity (PSR sort gate)” value is “high polyreactivity”.
The entry for “QVQHVESVGGLVQAGGSLRLSCAASGLIFLYNAMGWYRQAPGKVRELVAAITSSGGSTYYADSVKGRLTISRDYAKNTVYLQMNSLKPEDTAVYYCANRYQSYYYSHWGYRYYWGQGTQVTVSS” is “high polyreactivity”; for “QVQHVESVGGLVQAGGSLRLSCAASGRTFGCYTMGWYRHATGTERELVAGISSSGGSTYYADSVKGRFTISRDNAKNTVYLQMNSLKPEDTAVYYCARETYPHGLYYRPYDYWGQGTQVTVSS” it is “low polyreactivity”.
The entry for “QVQHVESVGGLVQARGSLRLSCAASGSIFDLYAMGWYRQAPGKERELVAGISYSGGSTYYADSVKGRFTISRDNAKNTVYLQMNSLKPEETAVYYCATAYYYHGGYYYPYDDYWGQGTQVTVSS” is “low polyreactivity”; for “QVQHVESVGRLVQAGGSLLLSCAASGSTFWIYAMGWKRQAPVKERELVAAISWRGGRTYYADSVKGRFTISRDNAKNTVYLQMYSLKPEDTGVYYCNAQKRDVSMGYWGLGTQVTVSS” it is “high polyreactivity”; for “QVQHVESVRGLVQAGGSLRLSCDASGIIFYSYAMGWYRQAPGKERELVARISTRGGSTYYADSVKGRFTISRDNAKNTVYLQMNSLKPEDTAVYYCAARYSRYIRFPYDYWGQGTQVTVSS” it is “high polyreactivity”.
Next, “QVQHVETGGGLVQAGGSLRLSCAASGFIFAEYAMGWYRQAPGKETEEVAAITSGGSTSYADSVKGRFTISRDNAKNTVYLQMNSLKPEDTAVYYCAATWYYLYNVWKHWYEYGYWGQGTQVTVSS”: “low polyreactivity”; “QVQHVETGGGLVQAGGSLRLSCAASGIFGYNAMGGYRQAPAKERELVAGITKSGARTYYADSVKGRFTISRDNAKNTVYLQMNSLKPEDTAVYYCKAVGKRFYNDDYWGQGTQVTVSS”: “high polyreactivity”; “QVQHVQSGGGLVQAGGRHRLSCAASGSTIRYYAMGWYRQAPGTERELVAAISGSGGRTYYADSVKGRFTISRDNAKNTGYLQMNSLKPEDTAVYYCYTRGRRTDNDYWGQGTQLTVSS”: “high polyreactivity”.
Turning to “QVQHVQSGGGLVQAGGSLRLSCAASGRTNPFYAMGWYRQAPGKERELVAAISSSAGRTYYADSVKGRFTISRDNAKNTFYFEMNSLKPEDTAVYYCAARLYGRYRYDYWGQGTQVTVSS”, the “polyreactivity (PSR sort gate)” value was “low polyreactivity”.
Next, “QVQIEESGGGLVQERGSLRLSCAAYGRIFDLYAMGWNRQAPGKERELVATISGSGGSTYYADSVKGRFTISRDTAKNTVYLQMNSLKPEDTAVYNCAAVSVSSWYDYWGQGTQVTVSS”: “low polyreactivity”; “QVQIVDSGGGLVQAGGRLRLTCAASGSTFYVYTMGWSRQAPGKESELFDRISSGGSTKYADSVKGRFTISRVNANNTVYLQMNILKPEDTAVYYCNADGLYLFGISYGKFLKYGHWGHGTQVTVSS”: “low polyreactivity”.

For the origin of these results see the nanobody polyreactivity screen of Harvey et al. (2022).
